Our source for the Kd values is paper PMC7015241, “Myopalladin promotes muscle growth through modulation of the serum response factor pathway” (Journal of Cachexia, Sarcopenia and Muscle, 2019).

The target of this assay is Filamentous actin (F-actin) (rabbit, UniProt P68135 1-377). Nature of the assay: co-sedimentation; 1–30 μM polymerized actin incubated with 10 μM MYPN Ig3, Ig4 or Ig3–4 domain for 1 h in 100 μL, 150 000×g for 30 min; SDS-PAGE of supernatants and pellets, densitometry; F-buffer (Tris, KCl, MgCl2, DTT, pH 8.0). The settings on record: both partners purified.

B1: Myopalladin (MYPN) Ig3-4 tandem domain (domain or fragment)
chain: PIFDKRLKHFRVTEGSPVTFTCKIVGIPVPKVYWFKDGKQISKRNEHCKMRREGDGTCSLHIESTTSDDDGNYTIMAANPQGRISCSGHLMVQSLPIRSRLTSAGQSHRGRSRVQERDKEPLQERFFRPHFLQAPGDMVAHEGRLCRLDCKVSGLPPPELTWLLNGQPVLPDASHKMLVRETGVHSLLIDPLTQRDAGTYKCIATNKTGQNSFSLELS
With B1, the Kd stood at 4.6 µM.

By Kd is commonly meant a measure of binding affinity in units of concentration.
